Earlier results on one substance are cited in paper PMC4900764.

The target in this data set is PEX5 (Saccharomyces cerevisiae) (UniProt P35056). Put plainly: ITC. (In general: Isothermal titration calorimetry measures the heat released or taken up as one component is titrated into another.)
UniProt P35056, sequence (P35056 whole entry): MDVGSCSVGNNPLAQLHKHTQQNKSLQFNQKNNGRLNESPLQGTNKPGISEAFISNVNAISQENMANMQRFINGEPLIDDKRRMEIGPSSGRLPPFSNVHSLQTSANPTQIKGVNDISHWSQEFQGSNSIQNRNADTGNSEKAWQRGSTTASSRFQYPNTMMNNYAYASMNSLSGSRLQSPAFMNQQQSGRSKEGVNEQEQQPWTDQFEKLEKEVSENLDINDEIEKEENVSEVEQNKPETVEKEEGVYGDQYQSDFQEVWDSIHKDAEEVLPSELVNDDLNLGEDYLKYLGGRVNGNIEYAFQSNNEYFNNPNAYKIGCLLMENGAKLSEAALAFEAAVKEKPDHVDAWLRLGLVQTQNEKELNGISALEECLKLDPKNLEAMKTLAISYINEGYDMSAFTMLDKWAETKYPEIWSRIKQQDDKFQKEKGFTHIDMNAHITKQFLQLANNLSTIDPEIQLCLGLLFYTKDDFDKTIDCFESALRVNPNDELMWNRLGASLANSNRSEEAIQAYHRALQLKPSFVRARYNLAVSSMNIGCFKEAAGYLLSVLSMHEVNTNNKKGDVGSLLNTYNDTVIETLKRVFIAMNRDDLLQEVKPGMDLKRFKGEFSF

By Kd is commonly meant the equilibrium constant for the complex coming apart. Take PCS60 (from UniProt P38137): the equilibrium dissociation constant (Kd) is 190 nM.
